Km and kcat data for 3 molecules are collected here from PMC12002104, “Identification and Protein Engineering of Galactosidases for the Conversion of Blood Type B to Blood Type O” (Chembiochem, 2025).

Series [1] concerns T1, O=[N+]([O-])c1ccc(O[C@H]2O[C@H](CO)[C@H](O)[C@H](O)[C@H]2O)cc1.
T1 construct: recombinant, E. coli BL21 Gold (DE3), pET28(a), N-terminal His-tag kept for kinetics (thrombin site); for crystals His-tag cut off at introduced TEV site
Put plainly: purified protein. It is filed as biochemical, Pedobacter panaciterrae.

Substrate in series [2]: O=[N+]([O-])c1ccc(O[C@H]2O[C@H](CO)[C@H](O)[C@H](O)[C@H]2O)cc1
Put plainly: purified protein. It is filed as biochemical, Bacteroides fragilis. Conditions: 50 mM sodium phosphate pH 7.5.

Setting [3] is: 50 mM sodium phosphate pH 7.5, 25.0 °C.

The Km is the concentration of substrate that gives half-maximal velocity. With PpaGal (Pedobacter panaciterrae), the Km in series [1] (50 mM sodium phosphate pH 7.5) came out at 3.512 ± 0.413 mM. In general, kcat refers to the maximal rate divided by the concentration of active sites. Turning to PpaGal (Pedobacter panaciterrae; W227Y), in series [1] (setting [3]), the Km was 3.43 ± 0.34 mM and the kcat came out at 0.25 ± 0.01 s⁻¹.

B1: BfGalB (Bacteroides fragilis NCTC 9343) (protein)
chain: QERVYDISQFGLKANSKKNASPVVRKAIAKIKAECRDGEKVILRFPAGRYNFHEAGSTVREYYISNHDQDNPKKVGIALEDMKNLTIDGQGSEFVFYGRMIPVSLLRSENCVLKNFSIDFEQPHIAQVQVVENDPEKGITFEPAPWVDYRISKDSVFEGLGEGWVMRYSWGIAFDGKTKHVVYNTSDIGCPTKGAFEVAPRRICSPKWKDARLVPGTVVAMRGWGRPTPGIFMSHDVNTSLLDVKVHYAEGMGLLAQLCEDITLDGFGVCLKGDNDPRYFTTQADATHFSGCKGKIVSKNGLYEGMMDDAINVHGTYLKVIKRVDDHTLIGRYMHDQSWGFEWGRPGDDVQFVRSETMELIGKQNQITAIRPYDKGEIRGAREFSITFKEAIDPAINEKSGFGIENLTWTPEVLFAGNTIRNNRARGTLFSTPKKTVVEDNLFDHTSGTAILLCGDCNGWFETGACRDVTIRRNRFINALTNMFQFTNAVISIYPEIPNLKDQQKYFHGGKDGGIVIEDNEFDTFDAPILYAKSVDGLIFRNNVIKTNTEFKPFHWNKDRFLLERVTNVKISE
notes: recombinant, E. coli BL21 Gold (DE3), pET28(a), N-terminal His-tag, thrombin site
With B1, in series [2], the Km turned out to be 6.950 ± 0.710 mM and the kcat was determined as 0.753 ± 0.082 s⁻¹.
